According to the supplement of paper PMC10126150:
± gives the standard deviation of the averaged measurements.

test system: ATP; assay: switch fluorescence ratio, 500 uM ATP over buffer (Cy3 cluster intensity, sum of 5 cycles each) (fold (ratio)); higher = stronger signal-on switching upon ATP binding; sequences stand for … in TCGTCGGCAGCGTCAGATGTGTATAAGAGACAGTTTTTTTTTTTTTTTTTTTTTTTTT…TC; details: aptamer strand: ATP DNA aptamer (quencher-CACCTGGGGGAGTATTGCGGAGGAAGG + anchor), 100 nM annealed; ATP concentration: 500 uM
How it was run: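 Between each of five buffer/ATP cycles, the flow-cell was stripped with NaOH and re-annealed. Each cycle imaged Cy3-labelled switching-strand clusters, annealed to 100 nM quencher-labelled ATP aptamer on a modified Illumina MiSeq flow-cell, first in selection buffer and then after 15 min with 500 uM ATP at 22 °C. The fluorescence ratio is summed target-cycle over summed buffer-cycle Cy3 intensity per cluster, averaged per switch-domain sequence, with clusters outside 100-1000 RFU excluded.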
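Also: ATP exposure 15 min at 22 °C before imaging.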

Sequence | switch fluorescence ratio
AGGGACGGGG | 0.991 ± 0.047
AGGGAGAGTT | 1.02 ± 0.017
AGGGAGCAGT | 1.018 ± 0.01
AGGGAGGACT | 1.022 ± 0.009
AGGGAGGATC | 1.02 ± 0.017
AGGGAGGGAA | 1.01 ± 0.022
AGGGAGGGTA | 0.9889 ± 0.0098
AGGGAGGTCG | 0.973 ± 0.035
AGGGAGTCTG | 1.018 ± 0.0035
AGGGATCAGC | 1 ± 0.008
AGGGATGCGG | 0.99607 ± 0.00094
AGGGATGGGA | 1.01 ± 0.019
AGGGATGTCC | 1.01 ± 0.044
AGGGATGTTT | 0.999 ± 0.026
AGGGCAGGGC | 0.917 ± 0.069
AGGGCAGTGG | 0.9796 ± 0.0025
AGGGCATAGG | 0.9652 ± 0.0066
AGGGCCAGGT | 1.11 ± 0.023
AGGGCCAGTC | 0.998 ± 0.074
AGGGCCGTTG | 0.996 ± 0.035
AGGGCGAAGA | 0.96 ± 0.022
AGGGCGCGTG | 0.995 ± 0.05
AGGGCGGATT | 1.01 ± 0.031
AGGGCGGGAT | 0.965 ± 0.049
AGGGCTGAGC | 0.996 ± 0.052
AGGGCTTTAC | 1.1314 ± 8.1e-05

Sequence | switch fluorescence ratio
AGGGGAAATG | 0.9645 ± 0.0024
AGGGGAGAGG | 0.992 ± 0.01
AGGGGAGGAT | 1.1 ± 0.15
AGGGGAGGGG | 1.02 ± 0.042
AGGGGAGTCG | 0.987 ± 0.021
AGGGGAGTTC | 1.04 ± 0.035
AGGGGATATT | 0.996 ± 0.01
AGGGGATCAA | 0.985 ± 0.015
AGGGGCAGTT | 0.985 ± 0.02
AGGGGCCAGT | 0.98 ± 0.019
AGGGGCGGTG | 0.994 ± 0.017
AGGGGCGTGA | 0.99 ± 0.011
AGGGGCTGCG | 0.938 ± 0.029
AGGGGGAAAA | 1.47 ± 0.69
AGGGGGAAAT | 0.987 ± 0.035
AGGGGGAACG | 1.01 ± 0.016
AGGGGGAAGT | 0.99 ± 0.045
AGGGGGAGGA | 1.01 ± 0.04
AGGGGGAGTC | 1.02 ± 0.053
AGGGGGATGT | 0.974 ± 0.05
AGGGGGCATC | 1.01 ± 0.07
AGGGGGCGCC | 1.02 ± 0.016
AGGGGGGAAC | 1.01 ± 0.024
AGGGGGGAAG | 0.989 ± 0.023
AGGGGGGATC | 1.01 ± 0.046
AGGGGGGCT | 1.01 ± 0.031

Sequence | switch fluorescence ratio
AGGGGGGGAC | 1 ± 0.021
AGGGGGGGGT | 1 ± 0.05
AGGGGGGTCG | 0.992 ± 0.072
AGGGGGGTTT | 1 ± 0.024
AGGGGGTAAC | 1 ± 0.051
AGGGGGTACT | 1 ± 0.011
AGGGGGTGCG | 0.988 ± 0.029
AGGGGGTGGG | 0.989 ± 0.02
AGGGGGTGGT | 0.987 ± 0.043
AGGGGGTTAG | 0.989 ± 0.03
AGGGGTACTC | 0.9982 ± 0.0076
AGGGGTAGGC | 0.9893 ± 0.0036
AGGGGTCCCG | 0.93546 ± 0.00063
AGGGGTCGCG | 0.981 ± 0.0054
AGGGGTCTTA | 0.978 ± 0.02
AGGGGTGCTA | 0.9996 ± 0.0095
AGGGGTGGTA | 0.981 ± 0.043
AGGGGTGTAG | 1.03 ± 0.057
AGGGGTGTTG | 0.991 ± 0.032
AGGGGTTAAA | 1.01 ± 0.022
AGGGGTTATC | 1.02 ± 0.026
AGGGGTTCTG | 1.01 ± 0.046
AGGGGTTGAG | 0.998 ± 0.036
AGGGGTTTGG | 0.983 ± 0.024
AGGGTAAACG | 0.986 ± 0.024
